Assays:
[1] = target: extracellular domain of human LEPR (amino acids 22-839 of P48357, Isoform B) with N-terminal myc-myc tag, GPI-anchored on HEK293 cells (HEK293/hLEPR-GPI) (human) (UniProt P48357); experiment: FACS, 70 nM Ab, HEK293/hLEPR-GPI, no Leptin
[2] = target: extracellular domain of human LEPR (amino acids 22-839 of P48357, Isoform B) with N-terminal myc-myc tag, GPI-anchored on HEK293 cells (HEK293/hLEPR-GPI) (human) (UniProt P48357); experiment: FACS, 10 nM Ab, HEK293/hLEPR-GPI, 1 uM Leptin
[3] = target: human LEPR extracellular domain expressed with a C-terminal myc-myc-hexahistidine tag (hLEPR.mmh) (human) (UniProt P48357); experiment: SPR, captured mAb, 37C
[4] = target: Macaca fascicularis LEPR extracellular domain expressed with a C-terminal myc-myc-hexahistidine tag (mfLEPR.mmh) (Macaca fascicularis); experiment: SPR, captured mAb, 37C
[5] = target: human LEPR extracellular domain expressed with a C-terminal mouse IgG2a Fc tag (hLEPR.mFc) (human); experiment: SPR, captured mAb, 37C
[6] = target: human LEPR extracellular domain expressed with a C-terminal myc-myc-hexahistidine tag (hLEPR.mmh) (human) (UniProt P48357); experiment: SPR, captured mAb, 25C
[7] = target: Macaca fascicularis LEPR extracellular domain expressed with a C-terminal myc-myc-hexahistidine tag (mfLEPR.mmh) (Macaca fascicularis); experiment: SPR, captured mAb, 25C
[8] = target: human LEPR extracellular domain expressed with a C-terminal mouse IgG2a Fc tag (hLEPR.mFc) (human); experiment: SPR, captured mAb, 25C
[9] = target: extracellular domain of human LEPR (amino acids 22-839 of P48357, Isoform B) with N-terminal myc-myc tag, GPI-anchored on HEK293 cells (HEK293/hLEPR-GPI) (human) (UniProt P48357); experiment: FACS, 10 nM Ab, HEK293/hLEPR-GPI, no added Leptin
[10] = target: extracellular domain portion of LEPR protein expressed with a C-terminal human Fc tag (hLEPR.hFc) (human); experiment: blocking ELISA, hLeptin coated
[11] = target: full length human LEPR (amino acids 1-1165 of P48357, Isoform B) on cells (human) (UniProt P48357); experiment: FACS, 70 nM Ab, HEK293/Stat3-luc/hLEPR-FL, no Leptin
[12] = target: human LEPR CRH1 (D1)-MMH (human) (UniProt P48357); experiment: Luminex, myc-captured protein on beads
[13] = target: extracellular domain of human LEPR (amino acids 22-839 of P48357, Isoform B) with N-terminal myc-myc tag, GPI-anchored on HEK293 cells (HEK293/hLEPR-GPI) (human) (UniProt P48357); experiment: FACS, HEK293/hLEPR-GPI, no Leptin
[14] = target: full length human LEPR (amino acids 1-1165 of P48357, Isoform B) on cells (human) (UniProt P48357); experiment: FACS, HEK293/Stat3-luc/hLEPR-FL, no Leptin
[15] = target: extracellular domain of human LEPR (amino acids 22-839 of P48357, Isoform B) with N-terminal myc-myc tag, GPI-anchored on HEK293 cells (HEK293/hLEPR-GPI) (human) (UniProt P48357); experiment: FACS, HEK293/hLEPR-GPI, no added Leptin
[16] = target: extracellular domain of human LEPR (amino acids 22-839 of P48357, Isoform B) with N-terminal myc-myc tag, GPI-anchored on HEK293 cells (HEK293/hLEPR-GPI) (human) (UniProt P48357); experiment: FACS, HEK293/hLEPR-GPI, 1 uM Leptin

Chain of extracellular domain portion of LEPR protein expressed with a C-terminal human Fc tag (hLEPR.hFc) (human) (chain, as listed by the source limits assumed): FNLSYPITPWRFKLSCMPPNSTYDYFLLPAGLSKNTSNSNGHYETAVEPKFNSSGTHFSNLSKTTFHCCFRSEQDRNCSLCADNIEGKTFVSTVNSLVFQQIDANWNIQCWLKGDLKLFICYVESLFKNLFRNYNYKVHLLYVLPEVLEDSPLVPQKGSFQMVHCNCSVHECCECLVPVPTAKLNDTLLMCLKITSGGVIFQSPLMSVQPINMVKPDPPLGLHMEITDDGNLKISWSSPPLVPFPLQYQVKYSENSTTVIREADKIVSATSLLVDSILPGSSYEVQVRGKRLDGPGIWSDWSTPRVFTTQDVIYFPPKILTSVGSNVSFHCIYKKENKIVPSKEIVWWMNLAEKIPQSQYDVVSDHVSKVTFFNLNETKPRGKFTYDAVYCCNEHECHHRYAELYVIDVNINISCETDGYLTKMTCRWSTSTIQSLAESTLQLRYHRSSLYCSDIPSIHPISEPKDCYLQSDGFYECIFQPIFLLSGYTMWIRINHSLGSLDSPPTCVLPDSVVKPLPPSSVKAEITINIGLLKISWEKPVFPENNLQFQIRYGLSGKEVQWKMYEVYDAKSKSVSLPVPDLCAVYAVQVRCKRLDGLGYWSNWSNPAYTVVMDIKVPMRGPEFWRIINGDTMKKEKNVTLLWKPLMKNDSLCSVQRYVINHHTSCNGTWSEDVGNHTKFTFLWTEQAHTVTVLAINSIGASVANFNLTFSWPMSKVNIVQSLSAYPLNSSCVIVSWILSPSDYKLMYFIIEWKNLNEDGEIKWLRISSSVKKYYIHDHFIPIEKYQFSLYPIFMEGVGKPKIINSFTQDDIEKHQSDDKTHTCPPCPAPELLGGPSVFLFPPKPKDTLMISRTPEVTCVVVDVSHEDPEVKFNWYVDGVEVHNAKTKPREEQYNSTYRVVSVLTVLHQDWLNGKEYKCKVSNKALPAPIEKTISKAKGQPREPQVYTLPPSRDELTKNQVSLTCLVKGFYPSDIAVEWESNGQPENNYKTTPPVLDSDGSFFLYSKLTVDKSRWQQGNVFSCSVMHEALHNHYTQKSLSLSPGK
Chain of extracellular domain of human LEPR (amino acids 22-839 of P48357, Isoform B) with N-terminal myc-myc tag, GPI-anchored on HEK293 cells (HEK293/hLEPR-GPI) (human) (P48357 22-839, one chain of several): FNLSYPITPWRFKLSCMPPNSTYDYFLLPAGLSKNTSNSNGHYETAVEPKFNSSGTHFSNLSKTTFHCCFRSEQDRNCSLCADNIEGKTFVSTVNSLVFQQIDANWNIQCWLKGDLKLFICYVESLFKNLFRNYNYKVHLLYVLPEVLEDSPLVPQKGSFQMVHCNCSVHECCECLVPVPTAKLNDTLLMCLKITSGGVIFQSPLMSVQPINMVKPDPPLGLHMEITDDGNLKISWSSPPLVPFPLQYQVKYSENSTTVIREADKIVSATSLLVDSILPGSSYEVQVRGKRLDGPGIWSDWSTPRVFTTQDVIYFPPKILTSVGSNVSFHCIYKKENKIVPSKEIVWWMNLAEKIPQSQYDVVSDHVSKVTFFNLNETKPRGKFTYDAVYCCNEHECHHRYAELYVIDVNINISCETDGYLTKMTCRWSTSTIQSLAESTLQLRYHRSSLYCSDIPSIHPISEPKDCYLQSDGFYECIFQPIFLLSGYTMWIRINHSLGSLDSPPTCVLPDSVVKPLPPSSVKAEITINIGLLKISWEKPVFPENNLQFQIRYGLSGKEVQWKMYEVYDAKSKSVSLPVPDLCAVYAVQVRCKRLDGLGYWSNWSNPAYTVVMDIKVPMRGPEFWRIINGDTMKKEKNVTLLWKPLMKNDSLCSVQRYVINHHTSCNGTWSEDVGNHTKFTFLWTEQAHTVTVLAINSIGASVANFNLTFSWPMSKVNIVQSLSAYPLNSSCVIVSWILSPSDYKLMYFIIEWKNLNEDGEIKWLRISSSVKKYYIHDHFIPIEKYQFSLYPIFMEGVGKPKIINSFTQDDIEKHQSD
Chain of Macaca fascicularis LEPR extracellular domain expressed with a C-terminal myc-myc-hexahistidine tag (mfLEPR.mmh) (Macaca fascicularis) (Q9MYL0 other isoform, or with tags, fused parts or gaps): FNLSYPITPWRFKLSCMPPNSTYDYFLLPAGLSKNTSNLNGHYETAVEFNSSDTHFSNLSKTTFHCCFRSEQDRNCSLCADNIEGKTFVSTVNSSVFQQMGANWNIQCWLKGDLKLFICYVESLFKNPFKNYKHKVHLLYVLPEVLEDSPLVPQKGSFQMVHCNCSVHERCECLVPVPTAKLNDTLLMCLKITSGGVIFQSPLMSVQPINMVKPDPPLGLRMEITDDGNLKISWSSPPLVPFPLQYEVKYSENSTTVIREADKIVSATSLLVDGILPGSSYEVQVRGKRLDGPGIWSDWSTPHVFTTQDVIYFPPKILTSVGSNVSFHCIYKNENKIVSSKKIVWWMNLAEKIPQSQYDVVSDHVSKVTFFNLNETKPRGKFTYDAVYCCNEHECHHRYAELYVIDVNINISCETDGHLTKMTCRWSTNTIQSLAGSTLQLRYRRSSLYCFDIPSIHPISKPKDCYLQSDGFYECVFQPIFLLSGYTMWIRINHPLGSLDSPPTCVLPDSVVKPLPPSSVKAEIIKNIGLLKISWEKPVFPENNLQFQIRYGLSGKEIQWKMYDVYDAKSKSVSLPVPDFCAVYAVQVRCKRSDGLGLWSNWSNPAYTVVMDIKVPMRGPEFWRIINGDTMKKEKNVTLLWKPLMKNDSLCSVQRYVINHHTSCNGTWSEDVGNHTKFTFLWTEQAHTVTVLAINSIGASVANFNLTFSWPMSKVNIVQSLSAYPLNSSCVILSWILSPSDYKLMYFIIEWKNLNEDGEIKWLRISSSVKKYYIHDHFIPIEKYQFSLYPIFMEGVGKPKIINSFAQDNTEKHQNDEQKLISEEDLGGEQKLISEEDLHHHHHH
Chain of human LEPR extracellular domain expressed with a C-terminal myc-myc-hexahistidine tag (hLEPR.mmh) (human) (P48357 other isoform, or with tags, fused parts or gaps): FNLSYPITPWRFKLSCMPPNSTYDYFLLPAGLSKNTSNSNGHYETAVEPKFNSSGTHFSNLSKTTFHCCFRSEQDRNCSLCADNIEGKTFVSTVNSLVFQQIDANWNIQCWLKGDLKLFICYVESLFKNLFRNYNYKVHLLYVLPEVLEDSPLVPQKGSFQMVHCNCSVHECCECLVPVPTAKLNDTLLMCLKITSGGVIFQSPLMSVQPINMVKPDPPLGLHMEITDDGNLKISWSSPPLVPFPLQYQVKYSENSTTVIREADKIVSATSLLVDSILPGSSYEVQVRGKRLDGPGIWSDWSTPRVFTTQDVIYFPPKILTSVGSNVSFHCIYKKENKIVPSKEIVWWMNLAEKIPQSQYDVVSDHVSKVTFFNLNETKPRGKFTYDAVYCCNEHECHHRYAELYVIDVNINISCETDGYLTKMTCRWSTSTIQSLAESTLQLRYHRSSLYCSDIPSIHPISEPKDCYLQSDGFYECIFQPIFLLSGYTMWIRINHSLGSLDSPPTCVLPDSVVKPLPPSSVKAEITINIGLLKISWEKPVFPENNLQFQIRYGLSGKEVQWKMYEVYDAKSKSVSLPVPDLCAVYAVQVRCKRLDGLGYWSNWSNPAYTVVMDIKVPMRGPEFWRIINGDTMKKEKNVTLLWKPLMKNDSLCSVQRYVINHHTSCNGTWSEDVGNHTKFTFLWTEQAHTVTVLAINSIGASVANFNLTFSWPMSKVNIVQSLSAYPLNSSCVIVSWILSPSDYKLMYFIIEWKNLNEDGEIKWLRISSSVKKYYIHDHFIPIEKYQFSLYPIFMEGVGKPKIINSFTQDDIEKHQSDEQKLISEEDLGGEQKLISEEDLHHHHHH
Chain of human LEPR extracellular domain expressed with a C-terminal mouse IgG2a Fc tag (hLEPR.mFc) (human) (chain, as listed by the source limits assumed): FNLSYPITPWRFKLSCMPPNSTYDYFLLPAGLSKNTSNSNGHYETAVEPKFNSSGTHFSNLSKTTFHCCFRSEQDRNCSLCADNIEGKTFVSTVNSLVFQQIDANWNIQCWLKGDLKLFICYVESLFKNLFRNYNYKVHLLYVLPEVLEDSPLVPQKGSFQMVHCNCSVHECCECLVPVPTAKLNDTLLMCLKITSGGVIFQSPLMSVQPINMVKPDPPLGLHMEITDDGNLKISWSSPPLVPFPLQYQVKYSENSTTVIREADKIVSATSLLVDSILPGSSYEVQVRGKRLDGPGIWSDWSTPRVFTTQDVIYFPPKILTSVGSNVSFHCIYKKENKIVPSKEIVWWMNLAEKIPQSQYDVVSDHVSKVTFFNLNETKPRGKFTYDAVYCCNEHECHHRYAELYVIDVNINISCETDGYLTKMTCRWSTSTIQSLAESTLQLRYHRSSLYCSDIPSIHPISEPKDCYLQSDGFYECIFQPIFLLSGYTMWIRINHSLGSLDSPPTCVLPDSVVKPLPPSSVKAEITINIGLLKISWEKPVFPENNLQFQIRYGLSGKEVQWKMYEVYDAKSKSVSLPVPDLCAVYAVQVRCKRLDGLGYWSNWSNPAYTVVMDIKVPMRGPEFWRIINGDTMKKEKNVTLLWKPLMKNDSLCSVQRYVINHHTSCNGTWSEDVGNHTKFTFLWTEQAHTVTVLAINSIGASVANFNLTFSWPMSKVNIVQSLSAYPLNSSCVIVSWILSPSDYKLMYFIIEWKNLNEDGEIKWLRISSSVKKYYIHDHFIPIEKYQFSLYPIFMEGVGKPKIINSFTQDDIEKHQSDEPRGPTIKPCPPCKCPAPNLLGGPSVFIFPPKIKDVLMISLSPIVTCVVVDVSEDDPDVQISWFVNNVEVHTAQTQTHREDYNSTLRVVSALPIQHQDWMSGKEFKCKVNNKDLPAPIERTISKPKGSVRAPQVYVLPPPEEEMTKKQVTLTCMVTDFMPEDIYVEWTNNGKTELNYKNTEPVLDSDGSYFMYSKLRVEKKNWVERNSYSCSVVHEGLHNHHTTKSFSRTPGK
Chain of human LEPR CRH1 (D1)-MMH (human) (P48357 22-229 limits assumed): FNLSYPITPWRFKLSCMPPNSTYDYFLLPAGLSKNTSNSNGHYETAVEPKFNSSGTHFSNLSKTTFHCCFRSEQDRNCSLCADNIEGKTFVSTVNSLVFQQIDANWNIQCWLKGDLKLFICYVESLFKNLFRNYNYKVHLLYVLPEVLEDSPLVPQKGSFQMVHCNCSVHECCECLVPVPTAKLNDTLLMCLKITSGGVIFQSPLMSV

Substance: Isotype Control monoclonal antibody
- Binding Ratio (normalized to unstained) [1]: 2 fold
- Binding Ratio (normalized to unstained) [2]: 4 fold
- 100 nM hLEPR-MMH Bound (RU) [3]: 6 RU
- 100 nM mfLEPR.MMH Bound (RU) [4]: 1 RU
- 100 nM hLEPR-mFc Bound (RU) [5]: 1 RU
- 100 nM hLEPR-mmH Bound (RU) [6]: 4 RU
- 100 nM mfLEP.MMH Bound (RU) [7]: 0 RU
- 100 nM hLEPR-mFc Bound (RU) [8]: -2 RU
- Binding Ratio (normalized to unstained) [9]: 6 fold
- 500 nM Ab Blocking of 10 nM hLEPR.hFc Binding to hLeptin (% blockade) [10]: -3%
- Binding Ratio (normalized to unstained) [11]: 2 fold

Substance: Mouse IgG2a Isotype control (antibody)
- 500 nM Ab Blocking of 10 nM hLEPR.hFc Binding to hLeptin (% blockade) [10]: 32%

Substance: Comparator mAb (Fab9F8 described in Fazeli et al. 2006 and Carpenter et al. 2012) (antibody)
- Binding Ratio (normalized to unstained) [2]: 112 fold
- Binding Ratio (normalized to unstained) [9]: 2350 fold
- 500 nM Ab Blocking of 10 nM hLEPR.hFc Binding to hLeptin (% blockade) [10]: 99%
- Luminex MFI [12]: 14 MFI

Substance: Alexa Fluor-647 conjugated secondary antibody (Jackson ImmunoResearch Laboratories Inc., #109-547-003), alone
- Binding Ratio (normalized to unstained) [13]: 1 fold
- Binding Ratio (normalized to unstained) [14]: 1 fold
- Binding Ratio (normalized to unstained) [15]: 3 fold
- Binding Ratio (normalized to unstained) [16]: 3 fold

From patent publication US20190309079A1
